Like-named read-outs stand apart in the source and are kept apart here. Each block holds one binder with its values, some of them ahead of it.
Assays:
[1] = target: T1, recombinant human C5-his protein (Sino Biological Inc., Cat#13416-H18H) (human, UniProt P01031 19-1676); experiment: competitive ELISA: antibody pre-mixed with biotin-labeled human C5-his 0.99 nM, added to coated Eculizumab; partial inhibition only
T1 construct: Bought protein; also called wild type human C5; not shown: his tag

[2] = target: T1, recombinant human C5-his protein (Sino …); experiment: capture ELISA: antibody captured on goat anti-human IgG Fc, biotin-labeled human C5-his 0.99 nM, streptavidin-HRP
[3] = target: T2, cynomolgus monkey C5-his protein (Acro biosystems, Cat#CO5-C52Hx) (cynomolgus monkey, UniProt A0A2K5U1T1 19-1676); experiment: indirect ELISA on coated cynomolgus C5-his (1 ug/ml), anti-human IgG Fc-HRP
T2 construct: Bought protein; also called Cynomolgus C5-his; cynomolgus C5; not shown: his tag

[4] = target: T2, cynomolgus monkey C5-his protein (Acro …); experiment: SPR (Biacore T200), antibody captured by anti-human IgG, C5 in flow, 1:1 fit
[5] = target: T1, recombinant human C5-his protein (Sino …); experiment: as above
[6] = target: T3, mutant human C5 (R885H)-his protein (Acro biosystems, Cat#CO5-H52Hx) (human, UniProt P01031 19-1676); experiment: indirect ELISA on coated human C5 (R885H)-his (2 ug/ml), anti-human IgG Fc-HRP
T3 construct: Bought protein; also called human C5 mutant; not shown: his tag

[7] = target: T3, mutant human C5 (R885H)-his protein …; experiment: SPR (Biacore T200), antibody captured by anti-human IgG, C5 in flow, 1:1 fit
[8] = target: T2, cynomolgus monkey C5-his protein (Acro …); experiment: indirect ELISA on coated cynomolgus C5-his (1 ug/ml), anti-human IgG Fc-HRP; remark: listed apart in the source
[9] = target: T3, mutant human C5 (R885H)-his protein …; experiment: indirect ELISA on coated human C5 (R885H)-his (2 ug/ml), anti-human IgG Fc-HRP; remark: listed apart in the source
[10] = target: T1, recombinant human C5-his protein (Sino …); experiment: competitive ELISA: antibody pre-mixed with biotin-labeled human C5-his 0.99 nM, added to coated Eculizumab; partial inhibition only, value below the range tested
[11] = target: T1, recombinant human C5-his protein (Sino …); experiment: capture ELISA: antibody captured on goat anti-human IgG Fc, biotin-labeled human C5-his 0.99 nM, streptavidin-HRP; remark: listed apart in the source

- IC50 [1]: ~256 pM
- EC50 [2]: 27.7 pM
- EC50 [3]: 128 pM
- Kd [4]: 1580 pM
- koff [4]: 0.000293 s⁻¹
- kon [4]: 185000 M⁻¹ s⁻¹
- Kd [5]: 262 pM
- koff [5]: 3.47e-05 s⁻¹
- kon [5]: 133000 M⁻¹ s⁻¹
- EC50 [6]: 85.3 pM
- Kd [7]: 303 pM
- koff [7]: 0.000153 s⁻¹
- kon [7]: 505000 M⁻¹ s⁻¹
B1: A5G9C2C7 (antibody, V domains shown)
VH: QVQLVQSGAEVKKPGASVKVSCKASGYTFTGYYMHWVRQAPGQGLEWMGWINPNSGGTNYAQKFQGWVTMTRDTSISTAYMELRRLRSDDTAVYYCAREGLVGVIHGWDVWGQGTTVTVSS
VL: DIQMTQSPSTLSASVGDRVTITCRASQNIYNWLAWYQQKPGKAPKLLIYKASSLESGVPSRFSGSGSGTEFTLTISSLQPDDFATYYCQQYNSNSRTFGQGTKVEIK
notes: Fully human antibody purified from hybridoma; not added here

- EC50 [8]: 127 pM
- EC50 [9]: 68.4 pM
- Kd [4]: 741 pM
- koff [4]: 0.000267 s⁻¹
- kon [4]: 360000 M⁻¹ s⁻¹
- Kd [5]: 1600 pM
- koff [5]: 0.000186 s⁻¹
- kon [5]: 117000 M⁻¹ s⁻¹
- IC50 [10]: ~1.53 pM
- Kd [7]: 1320 pM
- koff [7]: 0.000408 s⁻¹
- kon [7]: 308000 M⁻¹ s⁻¹
- EC50 [11]: 41.8 pM
B2: A2E12G12H7 (antibody, V domains shown)
VH: QVQLVQSGAEVKKPGASVKVSCKASGYTFTGYYIHWVRQAPGQGLEWMGWINPNSGSTNSAQKFQDWVTLTRDTSISTAYMELSRLKSDDTAVYYCARRADYYGSGNFYYFDYWGQGTLVTVSS
VL: DIQMTQSPSSVSASVGDRVTISCRASQSISRWLAWYQQKPGKAPKLLIYAATSLQSGVPSRFSGSGFVRDFTLTISSLQPEDFATYYCQQANTFPLIFGGGTKVEIK
notes: as for B1

Reference: patent US20230357438A1 (BIOSION, published 2023)
